Measurements taken from patent US20230265151A1, “GIP/GLP1 CO-AGONIST COMPOUNDS” (priority 2020, published 2023).
Numbering of substitutions follows the chain as printed. *1 amine or outer side, *2 acyl side, *3 side chain or, on linkers, in order; H or OH if unused. Where no end group is shown, it is not given here. Side-chain parts run from the residue outwards. [ ]: non-standard residue; d: D form. The star is where a group is joined. αMePhe(2-F) = C[C@](N)(Cc1ccccc1F)C(=O)O; γGlu = O=C(O)[C@H](CCC(=O)[*:2])N[*:1]; C14 diacid = O=C(O)CCCCCCCCCCCCC(=O)*; αMeY = C[C@](N)(Cc1ccc(O)cc1)C(=O)O; αMeF = C[C@](N)(Cc1ccccc1)C(=O)O; αMeL = CC(C)C[C@](C)(N)C(=O)O; Orn = NCCC[C@H](N)C(=O)O; AEEA = NCCOCCOCC(=O)O; Aib = CC(C)(N)C(=O)O

B1: Y-Aib-EGT-αMeF(2F)-TSD-4Pal-SI-αMeL-LD-Orn-K((2-[2-(2-Amino-ethoxy)-ethoxy]-acetyl)2-(γ-Glu)-CO-(CH2)12-CO2H)AQ-Aib-E-(3ClPhe)-I-(D-Glu)-αMeY-LIEGGK((2-[2-(2-Am … (peptide)
peptide: YXEGTXTSDXSIXLDXKAQXEXIXXLIEGGKSSGAPPPS
modifications: Aib2, αMeF(2F)6, 4Pal10, αMeL13, Orn16, Aib20, 3ClPhe22, D-Glu24, αMeY25; acylated K17, K31 (groups as in name); C-terminal amide
B2: Y-Aib-EGT-αMeF(2F)-TSD-ChA-SI-αMeL-LD-Orn-K((2-[2-(2-Amino-ethoxy)-ethoxy]-acetyl)2-(γ-Glu)-CO-(CH2)12-CO2H)AQ-Aib-EFI-(D-Glu)-αMeY-LIEGGK((2-[2-(2-Amino-ethoxy … (peptide)
peptide: B1 peptide with X22F
modifications: Aib2, αMeF(2F)6, ChA10, αMeL13, Orn16, Aib20, D-Glu24, αMeY25; acylated K17, K31 (groups as in name); C-terminal amide
B3: Y-Aib-EGT-αMeF(2F)-TSD-4Pal-SI-αMeL-LD-Orn-K((2-[2-(2-Amino-ethoxy)-ethoxy]-acetyl)2-(γ-Glu)-CO-(CH2)12-CO2H)AQ-Aib-E-3FPhe-I-(D-Glu)-αMeY-LIEGGK((2-[2-(2-Amino … (peptide)
peptide: B1 peptide
modifications: Aib2, αMeF(2F)6, 4Pal10, αMeL13, Orn16, Aib20, 3FPhe22, D-Glu24, αMeY25; acylated K17, K31 (groups as in name); C-terminal amide
B4: Y-Aib-EGT-αMeF(2F)-TSD-4Pal-SI-αMeL-LD-Orn-K((2-[2-(2-Amino-ethoxy)-ethoxy]-acetyl)2-(γ-Glu)-CO-(CH2)12-CO2H)AQ-Aib-E-αMeF(2F)-I-(D-Glu)-αMeY-LIEGGK((2-[2-(2-Am … (peptide)
peptide: B1 peptide
modifications: Aib2, αMeF(2F)6, 4Pal10, αMeL13, Orn16, Aib20, αMeF(2F)22, D-Glu24, αMeY25; acylated K17, K31 (groups as in name); C-terminal amide
B5: Y-Aib-EGT-αMeF(2F)-TSDVSI-αMeL-LD-Orn-K((2-[2-(2-Amino-ethoxy)-ethoxy]-acetyl)2-(γ-Glu)-CO-(CH2)12-CO2H)AQ-Aib-E-αMeF-I-(D-Glu)-αMeY-LIEGGK((2-[2-(2-Amino-ethox … (peptide)
peptide: B1 peptide with X10V
modifications: Aib2, αMeF(2F)6, αMeL13, Orn16, Aib20, αMeF22, D-Glu24, αMeY25; acylated K17, K31 (groups as in name); C-terminal amide
B6: Y-Aib-EGT-αMeF(2F)-TSD-4Pal-SI-αMeL-LD-Orn-K((2-[2-(2-Amino-ethoxy)-ethoxy]-acetyl)2-(γ-Glu)-CO-(CH2)12-CO2H)AQ-Aib-EFI-(D-Glu)-αMeY-LI-Orn-GGK((2-[2-(2-Amino-e … (peptide)
peptide: B1 peptide with X22F, E28X
modifications: Aib2, αMeF(2F)6, 4Pal10, αMeL13, Orn16, Aib20, D-Glu24, αMeY25, Orn28; acylated K17, K31 (groups as in name); C-terminal amide
B7: Y-Aib-EGT-αMeF(2F)-TSD-4Pal-GI-αMeL-LD-Orn-K((2-[2-(2-Amino-ethoxy)-ethoxy]-acetyl)2-(γ-Glu)-CO-(CH2)12-CO2H)AQ-Aib-EFI-(D-Glu)-αMeY-LIEGGK((2-[2-(2-Amino-ethox … (peptide)
peptide: B1 peptide with S11G, X22F
modifications: Aib2, αMeF(2F)6, 4Pal10, αMeL13, Orn16, Aib20, D-Glu24, αMeY25; acylated K17, K31 (groups as in name); C-terminal amide
B8: Y-Aib-EGT-αMeF(2F)-TSD-4Pal-SI-αMeL-LD-Orn-K((2-[2-(2-Amino-ethoxy)-ethoxy]-acetyl)2-(γ-Glu)-CO-(CH2)12-CO2H)AQ-Aib-Orn-FI-(D-Glu)-αMeY-LIEGGK((2-[2-(2-Amino-et … (peptide)
peptide: B1 peptide with E21X, X22F
modifications: Aib2, αMeF(2F)6, 4Pal10, αMeL13, Orn16, Aib20, Orn21, D-Glu24, αMeY25; acylated K17, K31 (groups as in name); C-terminal amide
B9: Y-Aib-EGT-αMeF(2F)-TSD-4Pal-Dap-I-αMeL-LD-Orn-K((2-[2-(2-Amino-ethoxy)-ethoxy]-acetyl)2-(γ-Glu)-CO-(CH2)12-CO2H)AQ-Aib-EFI-(D-Glu)-αMeY-LIEGGK((2-[2-(2-Amino-et … (peptide)
peptide: B1 peptide with S11X, X22F
modifications: Aib2, αMeF(2F)6, 4Pal10, Dap11, αMeL13, Orn16, Aib20, D-Glu24, αMeY25; acylated K17, K31 (groups as in name); C-terminal amide
B10: Y-Aib-EGT-αMeF(2F)-TSD-4Pal-SI-αMeL-LD-Orn-K((2-[2-(2-Amino-ethoxy)-ethoxy]-acetyl)2-(γ-Glu)-CO-(CH2)12-CO2H)AQ-Aib-EFIG-αMeY-LIEGGK((2-[2-(2-Amino-ethoxy)-etho … (peptide)
peptide: B1 peptide with X22F, X24G
modifications: Aib2, αMeF(2F)6, 4Pal10, αMeL13, Orn16, Aib20, αMeY25; acylated K17, K31 (groups as in name); C-terminal amide
B11: Y-Aib-EGT-αMeF(2F)-TSD-4Pal-SI-αMeL-LD-Orn-K((2-[2-(2-Amino-ethoxy)-ethoxy]-acetyl)2-(γ-Glu)-CO-(CH2)12-CO2H)AQ-Aib-GFI-(D-Glu)-αMeY-LIEGGK((2-[2-(2-Amino-ethox … (peptide)
peptide: B1 peptide with E21G, X22F
modifications: Aib2, αMeF(2F)6, 4Pal10, αMeL13, Orn16, Aib20, D-Glu24, αMeY25; acylated K17, K31 (groups as in name); C-terminal amide
B12: Y-Aib-EGT-αMeF(2F)-TSD-4Pal-SI-αMeL-LD-Orn-K((2-[2-(2-Amino-ethoxy)-ethoxy]-acetyl)2-(γ-Glu)-CO-(CH2)12-CO2H)AQ-Aib-E-3,5FPhe-I-(D-Glu)-αMeY-LIEGGK((2-[2-(2-Ami … (peptide)
peptide: B1 peptide
modifications: Aib2, αMeF(2F)6, 4Pal10, αMeL13, Orn16, Aib20, 3,5FPhe22, D-Glu24, αMeY25; acylated K17, K31 (groups as in name); C-terminal amide

Target: human glucagon receptor (human, UniProt P47871 26-477)
Assay: cell-based or functional assay

Binder	cAMP EC50 (1.0% HSA)
Y[Aib]EGT[αMePhe(2-F)]TSDV[Aib]I[αMeL]LD[Orn]K([AEEA-AEEA-γGlu-C14 diacid])AQ[Aib]E[αMeF]I[dE][αMeY]LIEGGK([AEEA-AEEA-γGlu-C14 diacid])SSGAPPPS-NH2	> 9950 nM
B1	> 9950 nM
B2	> 9950 nM
B3	> 9950 nM
B4	> 9950 nM
B5	> 9950 nM
B6	> 9950 nM
B7	> 9950 nM
B8	> 9950 nM
B9	> 9950 nM
B10	> 9950 nM
B11	> 9950 nM
B12	> 9950 nM

Target: human GLP-1 receptor (human, UniProt P43220 24-463)
Assay: cell-based or functional assay

Binder	cAMP EC50 (1.0% HSA)	cAMP Emax (1.0% HSA)
Y[Aib]EGT[αMePhe(2-F)]TSDV[Aib]I[αMeL]LD[Orn]K([AEEA-AEEA-γGlu-C14 diacid])AQ[Aib]E[αMeF]I[dE][αMeY]LIEGGK([AEEA-AEEA-γGlu-C14 diacid])SSGAPPPS-NH2	66 nM	
B1	34 nM	85.8%
B2	58.1 nM	
B3	27 nM	87.8%
B4	209 nM	
B5	76.8 nM	108%
B6	17.3 nM	112%
B7	402 nM	123%
B8	11 nM	
B9	70 nM	100%
B10	12.3 nM	95.8%
B11	35.5 nM	
B12	25.5 nM	104%

Target: T1, human GIP receptor (human, UniProt P48546 22-466)
T1 sequence (looked up): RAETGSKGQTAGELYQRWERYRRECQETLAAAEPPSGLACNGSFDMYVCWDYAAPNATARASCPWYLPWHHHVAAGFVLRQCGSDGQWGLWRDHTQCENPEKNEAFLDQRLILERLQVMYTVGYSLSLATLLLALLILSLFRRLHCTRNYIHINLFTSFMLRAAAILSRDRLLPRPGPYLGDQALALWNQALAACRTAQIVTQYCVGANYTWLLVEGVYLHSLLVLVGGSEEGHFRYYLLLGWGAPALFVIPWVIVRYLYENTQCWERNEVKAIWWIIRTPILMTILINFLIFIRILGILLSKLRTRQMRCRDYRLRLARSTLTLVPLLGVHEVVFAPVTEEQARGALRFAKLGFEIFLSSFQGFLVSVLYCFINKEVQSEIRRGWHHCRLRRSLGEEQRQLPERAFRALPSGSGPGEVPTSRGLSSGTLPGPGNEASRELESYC
Assay: cell-based or functional assay

Binder	cAMP EC50 (1.0% HSA)	cAMP Emax (1.0% HSA)
Y[Aib]EGT[αMePhe(2-F)]TSDV[Aib]I[αMeL]LD[Orn]K([AEEA-AEEA-γGlu-C14 diacid])AQ[Aib]E[αMeF]I[dE][αMeY]LIEGGK([AEEA-AEEA-γGlu-C14 diacid])SSGAPPPS-NH2	5.58 nM	92%
B1	1.27 nM	
B2	4.97 nM	
B3	0.986 nM	90.5%
B4	0.591 nM	80.3%
B5	2.64 nM	102%
B6	0.306 nM	87.5%
B7	2.61 nM	98.3%
B8	0.35 nM	81.3%
B9	2.45 nM	77.1%
B10	0.52 nM	95.9%
B11	0.515 nM	94.2%
B12	1.05 nM	
